Test results taken from US8796201B2 (The Board of Trustees of the Leland Stanford Junior …, priority 2002, dated 2014).

Key:
PQPQLPYPQPQLP = assay: Acceleration of brush border mediated digestion by exogenous endoproteases; type: biochemical, wheat
Description: FIG. 3. Dose dependent acceleration of brush border mediated digestion by exogenous endoproteases. […] This peptide was digested with 27 ng/μl brush border membranes, either alone, with increasing amounts of exogenous prolyl endopeptidase (PEP, specific activity 28 μU/pg) from Flavobacterium meningosepticum (US Biological, MA), or with additional elastase (E-1250, Sigma, Mo.), bromelain (B-5144, Sigma, Mo.) or papain (P-5306, Sigma, Mo.) (12). After one hour, the fraction of remaining (SEQ ID NO:4) […] (compared to the initial amount at t=0 min) was analyzed and quantified as in FIG. 1.
Alerted by the high proline content as a hallmark of most immunogenic gliadin peptides, a proline-specific endopeptidase was tested for the generation of new, free peptide termini. A literature search on available proteases led to the identification of prolyl endopeptidase (PEP) from Flavobacterium meningosepticum, which is specific for the C-terminal cleavage of prolines and readily available from recombinant sources (Yoshimoto et al. (1991) J. Biochem. 110, 873-8). The stable (SEQ ID NO:4) […] intermediate was digested with BBM in the presence of exogenous PEP. […] As little as 3.5 pg PEP/27 ng BBM protein was sufficient to double the extent of proteolysis of this gliadin fragment compared to incubation with BBM alone. In comparison, other commonly used proteases like papain, bromelain or porcine elastase were much less efficient, requiring 30-fold (papain) or 3000-fold (bromelain, elastase) higher amounts of enzyme compared to PEP to give similar results. Their proteolysis was restricted to the cleavage of the Gln^4-Leu^5 and/or Gln^11-Leu^12 bonds.
A similar preferential cleavage was found for (SEQ ID NO:1) QLQPFP^↓QPQLPY. This is in agreement with the preference of this prolyl endopeptidase for a second proline in the S2′ position (Bordusa and Jakubke (1998) Bioorg. Med. Chem. 6, 1775-80). Based on this P^↓XP motif and on the present data, up to 16 new, major cleavage sites can be predicted in the α2-gliadin sequence, a major source of immunodominant epitopes identified thus far upon PEP treatment. All of them are located in the critical N-terminal part. The internal cleavage by PEP can be expected to generate additional (otherwise inaccessible) substrates for DPP IV and DCP thereby complementing the natural assimilation process of gliadins by the BBM. Thus, the specificity of prolyl endopeptidase is ideally suited for detoxification of persistent immunoactive gliadin peptides in Celiac Sprue.

[1] = Double-blind crossover gluten challenge: daily symptom questionnaire; type: in vivo, human (Celiac Sprue patients); details: PEP Stage, 20 patients
Source text: Subjects and protocols: This study was approved by the Institutional Review Board of the Palo Alto Medical Foundation in Palo Alto, Calif., and all participants in the study were counseled regarding risks and signed an informed consent document. 22 patients were recruited who were in symptomatic remission on a gluten-free diet. Two patients dropped out of the study, one near the end of the first stage and the other prior to the second stage. The 20 patients who completed the study included 7 men and […] aged 21 to 78 (mean age 49). The time since diagnosis for the 20 patients ranged from 3 months to 18 years (mean 6 years). […] The serum anti-gliadin IgA antibodies and anti-tissue transglutaminase IgA and IgG antibodies were measured by an enzyme linked immunosorbent assay (ELISA) kit (INOVA Diagnostics, Inc., San Diego, Calif.). […] Total serum IgA levels were determined by an Integra instrument (Roche) (normal <81 mg/dl). […] The 25 g D-xylose 5-hour urine excretion test and the 72-hour quantitative fecal fat test were measured at baseline and on Day 15. […] For the 72 h quantitative fecal fat test, patients were instructed to consume a diet containing 80-100 g fat per day during the collection. The fecal fat excretion was determined by a gravimetric method. […]

B1: PEP: prolyl endopeptidase; Examples 1-2: from Flavobacterium meningosepticum (US Biological); Example 11: source not stated (protein, UniProt P27028 21-705, looked up)
Prolyl endopeptidase: QNSNVLKYPETKKVSHTDTYFGTQVSDPYRWLEDDRAEDTKAWVQQEVKFTQDYLAQIPFRDQLKKQLMDIWNYEKISAPFKKGKYTYFSKNDGLQAQSVLYRKDAAGKTEVFLDPNKFSEKGTTSLASVSFNKKGTLVAYSISEGGSDWNKIIILDAETKKQLDETLLDVKFSGISWLGDEGFFYSSYDKPKEGSVLSGMTDKHKVYFHKLGTKQSQDELIIGGDKFPRRYIGAYVTDDQRYLVVSAANATNGNELYIKDLKNKTDFIPIITGFDSNVNVADTDGDTLYLFTDKDAPNKRLVKTTIQNPKAETWKDVIAETSEPLEINTGGGYFFATYMKDAIDQVKQYDKNGKLVRAIKLPGSGNASGFGGEKTEKDLYYSFTNYITPPTIFKYNVTTGNSEVYQKPKVKFNPENYVSEQVFYTSSDGTKIPMMISYKKGLKKDGKNPTILYSYGGFNISLQPAFSVVNAIWMENGGIYAVPNIRGGGEYGKKWHDAGTKMQKKNVFNDFIAAGEYLQKNGYTSKEYMALSGRSNGGLLVGATMTMRPDLAKVAFPGVGVLDMLRYNKFTAGAGWAYDYGTAEDSKEMFEYLKSYSPVHNVKAGTCYPSTMVITSDHDDRVVPAHSFKFGSELQAKQSCKNPILIRIETNAGHGAGRSTEQVVAENADLLSFALYEMGIKSLK
Which “preferred cleavage bond in PQPQLPYPQPQLP” value (PQPQLPYPQPQLP) does the source give for B1 here?
The value was “Pro^8-Gln^9 and to a lesser extent the Pro^6-Tyr^7 bond”.

And the “amount sufficient to double the extent of proteolysis of PQPQLPYPQPQLP compared to BBM alone” value (PQPQLPYPQPQLP; 27 ng/μl BBM, one hour)?
Its value is 3.5 pg PEP/27 ng BBM protein.

And the “average Total Stage Symptom Score (sum of the 14 daily symptom scores)” value [1]?
The value was 23 (range 4 to 82).
